B1: Aβ1-40 murine form (synthetic amyloid-beta peptide 1-40) (peptide, UniProt P12023 672-711, looked up)
peptide: DAEFGHDSGFEVRHQKLVFFAEDVGSNKGAIIGLMVGGVV
modifications: also: radioiodinated with Na[125I], position not given here
notes: domain: Aβ1-40; also called mouse Aβ1-40; murine Aβ1-40
B2: Mouse receptor for advanced glycation endproduct (RAGE) at the blood-brain barrier (receptor)
chain: GQNITARIGEPLVLSCKGAPKKPPQQLEWKLNTGRTEAWKVLSPQGGPWDSVAQILPNGSLLLPATGIVDEGTFRCRATNRRGKEVKSNYRVRVYQIPGKPEIVDPASELTASVPNKVGTCVSEGSYPAGTLSWHLDGKLLIPDGKETLVKEETRRHPETGLFTLRSELTVIPTQGGTTHPTFSCSFSLGLPRRRPLNTAPIQLRVREPGPPEGIQLLVEPEGGIVAPGGTVTLTCAISAQPPPQVHWIKDGAPLPLAPSPVLLLPEVGHADEGTYSCVATHPSHGPQESPPVSIRVTETGDEGPAEGSVGESGLGTLALALGILGGLGVVALLVGAILWRKRQPRREERKAPESQEDEEERAELNQSEEAEMPENGAGGP
notes: Endogenous RAGE on brain microvessels/endothelium of living mice (brain perfusion model); The mice in the experiments were of other strains; also called receptor for advanced glycosylation end products

Ends that are not written are not given here.

The target in experiment [1] is B2. The experiment is described as follows: in vivo brain perfusion with 125I-Aβ, capillary-depletion, binding to brain microvessels. The method, then: (§1) Injection of radioisotopes for transport studies. […] When the effects of different unlabeled molecular reagents were tested, those were injected 5 min prior to tracers injection and than simultaneously with radiolabled ligands. At predetermined times within 10 min mice were sacrificed by decapitation, and brain tissue prepared for radioactivity analysis. TCA and HPLC analysis as we described were used to determine molecular forms of uptake of radiolabeled Aβ by the BBB. Capillary-depletion technique was used to separate micravascular pellet from capillary-depleted brain to quantify in vivo binding to microvessels vs. transport into brain parenchyma, as we reported.

For experiment [2], the target named is T1, Aβ1-40 human form (synthetic amyloid-beta peptide 1-40) (human, UniProt P05067 672-711, radioiodinated with Na[125I] for the transport and binding studies).
T1 construct: domain: Aβ1-40; Stock solutions in DMSO to keep it monomeric; Aβ numbering 1-40 counts on the Aβ peptide, not on APP; also called human Aβ1-40; Amyloid β1-40 peptide
The experiment is described as above. The method, then:
as §1

Consider B1, for which, in experiment [1], the binding result is reported as “binds”.

Regarding B2, the binding result in experiment [2] was “binds”.

For the origin of these results see patent US6825164 (TRUSTEES OF COLUMBIA UNIVERSITY IN THE CITY OF NEW YORK, dated 2004).
